This assay concerns the target NaV1.5 voltage-gated sodium channel α subunit (human SCN5A) (human) (UniProt Q14524).

The source of these data is PMC7550680.

Take “Sodium channel β1 subunit carrying p.D103V (β1^D103V) (from UniProt Q07699-1 19-218) (natural protein)”: the positive shift of the voltage dependence of activation (V1/2) of the NaV1.5 sodium current with β1^D103V compared to β1^WT, whole cell patch clamp in transfected HEK-293 tsA201 cells was determined as 3.37 mV.
